Patent US20170081379A1
Bridge positions count the residues as written; N and C are the ends. Square brackets hold non-standard residues; d marks the D form. Ends that are not written are not given here. R8 = C=CCCCCCC[C@@](C)(N)C(=O)O; S5 = C=CCCC[C@](C)(N)C(=O)O

What was measured:
[1] = biological target: recombinant HDM2 17-125 (human) (UniProt Q00987); test: fluorescence polarization, FITC-labeled peptide with HDM2 17-125
[2] = biological target: recombinant HDM2 17-125 (human) (UniProt Q00987); test: fluorescence polarization, FITC-peptide with titrated HDM2 17-125; the concentration is that of hDM2

recombinant HDM2 17-125 (human), sequence (Q00987 17-125 limits assumed): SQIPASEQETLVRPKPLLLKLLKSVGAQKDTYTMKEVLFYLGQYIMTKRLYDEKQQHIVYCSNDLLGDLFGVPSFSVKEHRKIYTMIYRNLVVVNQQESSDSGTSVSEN

B1: FITC-SAH-p53-5 (peptide, from a related filing)
peptide: LSQETF[R8]NLWKLL[S5]QN-NH2
modifications: staple 7-14; not fully specified (N-terminus)
Kd [1]: 0.8 nM | EC50 (read off the curve) [2]: 0.8 nM

B2: FITC-SAH-p53-4 (peptide, from a related filing)
peptide: LSQETF[R8]DLWKLL[S5]EN-NH2
modifications: staple 7-14; not fully specified (N-terminus)
Kd [1]: 0.92 nM

B3: FITC-SAH-p53-6 (peptide, from a related filing)
peptide: LSQQTF[R8]NLWRLL[S5]QN-NH2
modifications: staple 7-14; not fully specified (N-terminus)
Kd [1]: 56 nM

B4: FITC-SAH-p53-7 (peptide, from a related filing)
peptide: QSQQTF[R8]NLWKLL[S5]QN-NH2
modifications: staple 7-14; not fully specified (N-terminus)
Kd [1]: 50 nM
